# Values quoted from earlier work, collected in patent publication US7449180B2, “Macroscopic scaffold containing amphiphilic peptides encapsulating cells” (priority 2001, dated 2008).
# Parameters: key: β denotes beta-sheet; α denote alpha-helix; r.c. denotes random coil
# Conditions: secondary structure of the peptide
row,Substance,Structure
1,n-(ADADADADARARARAR)-c [DAR32-IV],α/β
2,n-AEAEAEAEAKAK-c [EAK12],α/β
3,n-AEAEAEAEAKAKAKAK-c [EAK16-IV],β
4,n-AEAEAHAH-c [EAH8-II],r.c.
5,n-AEAEAHAHAEAEAHAH-c [EAH16-II],β
6,n-AEAEAKAK-c [EAK8-II],r.c.
7,n-AEAEAKAKAEAEAKAK-c [EAK16-II],β
8,n-AEAKAEAK-c [EAKA8-I],r.c.
9,n-AEAKAEAKAEAKAEAK-c [EAKA16-I],β
10,n-FEFEFKFKFEFEFKFK-c [EFK16-II],β
11,n-FEFKFEFK-c [EFK8-II],β
12,n-HEHEHKHK-c [EHK8-I],r.c.
13,n-HEHEHKHKHEHEHKHK-c [EHK16],r.c.
14,n-KADAKADA-c [KADA8-I],r.c.
15,n-KADAKADAKADAKADA-c [KADA16-I],β
16,n-KAKAKAKAEAEAEAEA-c [KAE16-IV],β
17,n-LELELKLK-c [ELK8-II],r.c.
18,n-LELELKLKLELELKLK-c [ELK16-II],β
19,n-RADARADA-c [RADA8-I],r.c.
20,n-RADARADARADARADA-c [RADA16-I],β
21,n-RADARGDARADARGDA-c [RGDA16-I],r.c.
22,n-RAEARAEA-c [RAEA8-I],r.c.
23,n-RAEARAEARAEARAEA-c [RAEA16-I],β
24,n-RARADADA-c [RAD8-II],r.c.
25,n-RARADADARARADADA-c [RAD16-II],β
26,n-RARARARADADADADA-c [RAD16-IV],β
27,n-RFRFRFRFRFRFRFRFRFRF-c [RF20*],β
28,n-VEVEVEVEVEVEVEVEVEVE-c [VE20*],β
